# Results published in the DeepSol protein solubility set.
# Assay: soluble on expression in E. coli; label from the status in PepcDB or PDB records
row,Sequence,soluble on expression in E. coli
1,MPFILRRERSILKTALPPIRDDAVLCPLLPFQSAQLKEVERKHHAGTLSGNPHIQYRKILLHPHTTQSFLHVDEEVVCTSGKLLVLDFVMRFLQRTQHKLLVVCGWTLILDIVETLCGMRGIPYVRLDGRTMVKQREANIRGFNRSVANGNGVVEEAGGGGGDAEGDAATSRPRRNSRQRASTDTTGGPSPNADGRGDEEDGSSLPLATPCCFLISKVAGGAGLNLQAADTVFLLDVDYNPQRDAQALSRVYRVGQSKEVRVFRLIIDHAIEHDIVAIHEAKDDLGRAVVQAGCYDLHSSAHEREAALQGIFRAGALSRLSQQWTTTTRTADDTQGDSGEEEREEAVPSPCASFPPMTFPRCDLKDEGGADSDTEEVGKASPSPAQKSTDLHCVFISGGSGGARAMSSAPRKQVKTEMESEGSGRLADAADGEISVAVAGDVNPQCALLPHRRRRRHISFKLEKDDSEEGGGKAGRGDPAADPAGNARKLANPATAPLLFTAPPPHPSMTAAEVGEAVAAATARVQAPAEHRLAMRERLEEVLLRRKGERHVLEDMFRSV,soluble
2,MADAAPQLGKRKRELDVEEAHAASTEEKEAGVGNGTCAPVRLPFSGFRLQKVLRESARDKIIFLHGKVNEASGDGDGEDAVVILEKTPFQVEQVAQLLTGSPELQLQFSNDIYSTYHLFPPRQLNDVKTTVVYPATEKHLQKYLRQDLRLIRETGDDYRNITLPHLESQSLSIQWVYNILDKKAEADRIVFENPDPSDGFVLIPDLKWNQQQLDDLYLIAICHRRGIRSLRDLTPEHLPLLRNILHQGQEAILQRYRMKGDHLRVYLHYLPSYYHLNVHFTALGFEAPGSGVERAHLLAEVIENLECDPRHYQQRTLTFALRADDPLLKLLQEAQQS,soluble
3,MKTPPINQKSLRETESWKLLESSIIYYEGNPIGTVAAQDPELAALNYDQCFLRDFVPSAFVFLMDGQTDIVRNFLIETLTLQSHEKEMDCFQPGAGLMPASFKVESDGSKEYLVADFGEKAIARVPPVDSCMWWILLLRAYEKATGDLTLAREPKFQAGIKLILDLCLAHRFSMYPTMLVPDGAFMIDRRMGVYEHPLEIQVLFYAALRAARELLLPDGDGEQYLNKVHGRLGALQYHIRNYYWVDLKRLREIYRYKGNEFGKEIANKFNIFSQSIPDWVIEWLPEKGGYLAGNLGPGRMDFRFFALGNLMAILAGLASEEESQRIMNLFAHRWEDLIGYMPVKICYPALQGLEWQIVTGCDPKNIPWSYHNGGNWPVLLWLFTAAALKTGKVELAHEAIAIAEGRLSNDKFPEYYDGNNGRLIGKEARIYQTWSIAGLLVAKQFLANPDHVEFISFPDTFIGPGCSLLEHHHHHH,not soluble
4,MWNETWNEITNELIQLSREPESEIPRITAEQRAYLKLVRPAAFVEGIAVLRVPHSRAKETIETHLGQAITSVLSRRMGRPFTVAVTVDPTLDVIQDLPHDVPEQHIVQHHVPEHPHYSPVSQGYPPHYAPEQSEYNTEYSDEYPSGWATYHVQTPQPSQSSQSAQQQPAQRMPDRRRYA,not soluble
5,MTTKKFRMEDVGLSKLKVEKNPKDVKQTEWKSVLPNEVYRVARESGTETPHTGGFNDHFEKGRYVCLCCGSELFNSDAKFWAGCGWPAFSESVGQDANIVRIVDRSHGMHRTEVRCKTCDAHLGHVFNDGPKETTGERYCINSVCMAFEKKD,soluble
6,MGSDKIHHHHHHMPNRDSEKLITDGYTTTLLGDELMVCENMKHIRVTSVPSYTEVGMIILCLRGTAKICIFDNIHILAKNELAVILPGQLVSITELSPDFLCNIVVLSRALFDDTLSGFSRFSPLFFVYMRSHYWYELTGEEIERFKLFYGSLSQRAKDPTHFFRRESVLLLLRIFYLDIYNEYYSKSHLMKGGSDMGKSKLAHDFFCLIMQHYREHKDVAFYADKLCITSKYLSMVIKEASGKTAKDWIVEYAILEIKAMLKNSTMNIQEISIKTNFANQSSLGRFFRKHTGMTLTEYRMHR,not soluble
7,MGNNTIGARKSTTSKFWKCRSCIASRTTESRNNSIIQQRRNFIIRTKKEIPFPKRGASKDSCGSCHNQKNLIVCHLFLFKNHKKLFF,not soluble
8,MSLNDRTTTHGETEPRSEQPGIRAAAGPGRWHDVELMAYKPDDAAPFRSVTRQVLFSDLRLGCEWRYFEVAEGGYSTLERHQHVHATMIHRGRGQCLVGDVISDVAVGDLVFIPPMTWHQFRANAGDVLGFLCLVNADRDRPQLPRPDELAVLRQNKAIASFIGAEAEGHHHHHH,soluble
9,MGHHHHHHSHKLEEAYEPNQVAISLIGEPTLYPMLPELIEEYKKRGFTTFLVTNGTNPDMLEKVKPTQLYLSLTAFDEDSHLVLNRPGKSNWERVLRSLEVMRDSGSRTVIRLTLIRGYNMDEEAIRKYSELIEMAEPDFIEAKAYMYLGYSRLRLRWGNMPEHADIVEFSRKLADSTGYEVKRESEPSRVVL,not soluble
10,MESVRRGKLMKNKKIKFDVYLNGIAYHCIKCGFCCDAPTVTKKDLAKIAGYLKIPFDEVLKRYVRFFNGYIGELKEVGGKCIFLDKKTKKCKIYKVRPLICRLRPYSVQVRNGKLTLTYDIWFLRYCRGLYLGDGKVEDEYFKYAELVLKYLGFEEGVDEEEFKRAKERLLEESLKYRKKKDLEHHHHHH,soluble
11,MNYVKIGVGGPVGSGKTALIEKLTRILADSYSIGVVTNDIYTKEDAEFLIKNSVLPKERIIGVETGGCPHTAIREDASMNLEAVEELVQRFPDIQIVFIESGGDNLSATFSPELADATIYVIDVAEGDKIPRKGGPGITRSDLLVINKIDLAPYVGASLEVMERDSKKMRGEKPFIFTNLNTNEGVDKIIDWIKKSVLLEGV,soluble
12,MGHHHHHHSHLSFHFPPRVTGHPWSLVFCTSRDGFSLQSLYRRMEGCSGPVLLVLRDQDGQIFGAFSSSAIRLSKGFYGTGETFLFSFSPQLKVFKWTGSNSFFVKGDLDSLMMGSGSGRFGLWLDGDLFRGGSSPCPTFNNEVLARQEQFCIQELEAWLLS,not soluble
13,MNGASRGDVQRPTPVQAPAKRPIPPTVFRFEKASKIGTSLDTTPKELPIRRPVPLPGPRFVKDVNPSPPATSSPNVQTQCHQPPVVRSQTHQASVSQTTPTQTTPSQYTPASVSTARAPQFHRSSHVTPSQQQRIEQAFGPAPVSQSQPQNGSYIQYNEPSTSVASTTTSFYSPNESEPVFTHAISFKPNEPENGQKAREQLELLDSGKINEINQSKVPTTIELPPNCKLFQYSWVLDGIPRTLLVPMPMDATEEDVKAMLPKTLEMDSNLFNNARPRDELPVLSFPNGTVPNVEMIGPKVQQPMLVNPKQFNRIMRRREMRQQLEASGRLPLARQKYLHESRHLHALKRKRGLDGRFDNTKTAESSSMVSSTTSPRKLKRRNRLPGEETSDSSSIVLPSPVEIQPKGGIVNSSMPSTSTGYINNGMDHQTDYIEHQQPMSTYDQYHDHVQYIAPDGNVNYHNNHDNGVDLTGSDGQSFTNL,soluble
14,MSLRKIIPINNNWYFKADYEEGYEKVDDLRSFENVNLPHTNIELPYNYFDEKMYQIKSCYKYPLHISEKYRDKVIYIHFEGVMAYAQVYLNGLYIGEHKGGYTPFDIRIDEVYDWKKELNMLTVVVDSTERSDIPPKGGQIDYLTYGGIYREVSLGIYDDVFIKNIKVETHGIYDNEKSLNLIVHLENLNHQSGNVKFKVKINDKNGKEVFYKEFNTYLDAVKDVYSFNIENLKDIKLWDVDNPNLYEIKVGMKINNFSDEYDNKFGFREAVFKPDGFYLNGRKLKLRGLNRHQSYPYVGYAMPRRVQEKDAEILKNELHLNIVRTSHYPQSKHFLNKCDELGLLVFEEIPGWQYIGNSEWKKVAEQNLREMITRDWNHPSIILWGVRINESQDDDAFYKNMNKIAHEIDPTRQTGGVRYITNSSFLEDVYTFNDFIHDGINKPLRKQQEVTGLEHNVPYLVTEYNGHMYPTKRFDNEERQMEHCLRHLRIQNASYLDDSISGAIGWCAFDYNTHKDFGSGDRICYHGVMDMFRLPKFASYVYKSQVSPDIEPILEPVTFWARGERSIGGVIPLIIFTNCDYIELQYGNKTKIDNIYPNRDAYKGIPYPPIIIDYDIVKPEMIGAWGMVWEDLTLKGFYKGNKVIERKFSREPIPTYLYVVPDDTILSATQKDATRIVVKILDQYGNLLPFINEVIKIEIEGPAKLQGPNEVALIGGEGHHHHHH,soluble
15,NKNAFLIVRGNLTYAHSEYLKYEDNTYDKEWWKYKIGYSPNQKWGYIAEGLFIDDAEVANSPVQFGDYKAGDIKYRDMNGDGVINSLDQVPIGHPTSPEINYGFGSTFSYKGFDINFQFHGSAQSSFWIDYDKMSPFFKDSKMSQKTNNQLVKFIANSYWSESNRNRYATWPRLSTTSVANNKELSTWFMRDGSFLRLKLVELGYTVPQKIVSKWGMSNLRLYMSSTNLFVLSKFKDWDVELAGNGLNYPLQRVFNIGVNVSF,not soluble
16,MGSDKIHHHHHHMEYATLGNSGVEVSEVGFGAWVVGTDWWGDRTRDDAIDMVQHALDEDVTFFDTGDVYGHGDSEEIIGEALAEHRDEVTVSTKIGYDFYNNPQAGHGELPKKVTPEWVHTAVDRSLDRLGMDHVELLMLHNANVDEVDEDVLEALDELREEGKVDAIGWALGPSIGWLAEGDAAVANEFDALQTVFNLFEQTPGQHFIDTIREQNADTSVLARVPHSSGLLNEQVTPETELGKGDHRSHRPSEWYETGWEKVEEIRFLERDGARTMGQAAIQWLLYNDEVASVTPTFRTNADIDEWAGAPDTPPLSDEEYDRVQELYRDNFGIDRDDGMDALRSSVGGADLEETGMKSAGD,not soluble
17,MKTLIARHKAGEHIGICSVCSAHPLVIEAALAFDRNSTRKVLIEATSNQVNQFGGYTGMTPADFREFVFTIADKVGFARERIILGGDHLGPNCWQQENADAAMEKSVELVKAYVRAGFSKIHLDASMSCAGDTIPLAPETVAERAAVLCFAAESVATDCQREQLSYVIGTEVPVPGGEASAIQSVHITHVEDAANTLRTHQKAFIARGLTEALTRVIAIVVQPGVEFDHSNIIHYQPQEAQALAQWIENTRMVYEAHSTDYQTRTAYWELVRDHFAILKVGPALTFALREAIFALAQIEQELIAPENRSGCLAVIEEVMLDEPQYWKKYYRTGFNDSLLDIRYSLSDRIRYYWPHSRIKNSVETMMVNLQGVDIPLGMISQYLPKQFERIQSGELSAMPHQLIMNKIYDVLRAYRYGCAE,not soluble
18,MGSDKIHHHHHHMFPPDKTLFLCLSALLLASCGTTSGKHRQPKPKQTVRQIQAVRISHIDRTQGSQELMLHSLGLIGTPYKWGGSSTATGFDCSGMIQFVYKNALNVKLPRTARDMAAASRKIPDSRLKAGDLVFFNTGGAHRYSHVGLYIGNGEFIHAPSSGKTIKTEKLSTPFYAKNYLGAHTFFTE,not soluble
19,AEIKAVSAARLLDVASGKYVDNPLVIVTDGRITSIGKKGDAVPAGATAVDLPGVTLLPGLIDMHVHLDSLAEVGGYNSLEYSDRFWSVVQTANAKKTLEAGFTTVRNVGAADYDDVGLREAIDAGYVPGPRIVTAAISFGATGGHCDSTFFPPSMDQKNPFNSDSPDEARKAVRTLKKYGAQVIKICATGGVFSRGNEPGQQQLTYEEMKAVVDEAHMAGIKVAAHAHGASGIREAVRAGVDTIEHASLVDDEGIKLAVQKGAYFSMDIYNTDYTQAEGKKNGVLEDNLRKDRDIGELQRENFRKALKAGVKMVYGTDAGIYPHGDNAKQFAVMVRYGATPLQAIQSATLTAAEALGRSKDVGQVAVGRYGDMIAVAGDPLADVTTLEKPVFVMKGGAVVKAP,soluble
